Results from patent US7025971.

Columns and labels:
[1] = target: PapD (wild type) (E. coli) (UniProt P15319); assay: soluble inhibition ELISA: 25-fold molar excess of peptide, 100 pmol/well PapD, G1′-19′WT-coated wells
[2] = target: PapD (wild type) (E. coli) (UniProt P15319); assay: cell-based or functional assay

Chain of PapD (wild type) (E. coli) (P15319 22-239 limits assumed): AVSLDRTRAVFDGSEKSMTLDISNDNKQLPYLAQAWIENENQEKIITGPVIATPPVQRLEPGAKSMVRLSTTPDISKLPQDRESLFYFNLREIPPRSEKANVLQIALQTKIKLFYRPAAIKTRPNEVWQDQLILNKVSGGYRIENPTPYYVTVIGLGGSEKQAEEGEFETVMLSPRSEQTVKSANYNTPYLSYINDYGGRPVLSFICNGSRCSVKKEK

Substance	% Inhibition [1] [%]	HA titer [2]	Piliation percentage [2] [%]	decrease of HA titer [2] [fold]
G2′-21′amide (peptide)	0	–	–	–
MBP/G1′-81′ (from UniProt P0AEX9 27-392)	–	82	40	–
MBP/G1′-140′ (from UniProt P0AEX9 27-392)	–	4	10	30
